Where no end group is shown, it is not given here.

The values below come from patent US20110150888A1 (Amgen, published 2011).

Sequences and labels used below:
B1: human hepcidin (mature, 25 amino acids) (peptide)
peptide: DTHFPICIFCCGCCHRSKCGMCCKT
modifications: disulfide (positions not given here); also: mono-biotinylated in some assays, site not given here
notes: the form is named in each assay field; also called rhuHepc; rhHepc

Test [1] deals with T1, murine antibody 2.7.
T1 construct: Murine monoclonal antibody; murine IgG1 was used as its isotypic control; also called Ab2.7; Ab 2.7
The experiment in a line: competitive binding assay, luminescence, standards in rabbit serum: unlabelled hepcidin against biotinylated human hepcidin (0.25 nM) for Ab2.7. The protocol: (§1) Hepcidin levels were determined using hepcidin standards of varying concentrations (from 1.4-300 ng/ml) spiked into buffer (5% BSA:I-block), rabbit serum, or pooled human serum. Hepcidin was added to equal volumes of 40 ng/mL of Ab2.7 and incubated for 120 minutes. 25 μl/well of mixed solution was added to Black half area plates coated with 1-2 μg/mL G×M capture antibody. 25 μL/well of biotinylated hepcidin was added at 0.25 nM. The plate was covered with plate film sealer and incubated at room temperature (25° C.) on a plate shaker at around <200 RPM for around 60 minutes. The plate was washed and then 50 μL/well of Poly horseradish peroxidase amplification reagent at 1:2000 was added. The plate was allowed to sit for 30 minutes and was then washed with a plate washer using PBS or KPL buffer 6 times. The plate was patted dry and a luminescent substrate (Femto or Pico) was quickly added. The plate was read with luminometer (ex: Lmax 340) for 1 second using Femto or Pico Substrate. […] (FIG. 18).

Test [2] deals with T1, murine antibody 2.7. Nature of the test: competitive binding assay, luminescence, standards in buffer (5% BSA: I-block): unlabelled hepcidin against biotinylated human hepcidin (0.25 nM) for Ab2.7. As for the experimental part: as §1
The target of test [3] is T1, murine antibody 2.7. The experiment in a line: competitive binding assay, luminescence, standards spiked into pooled human serum (endogenous hepcidin present, not counted on the axis): unlabelled hepcidin against biotinylated human hepcidin (0.25 nM) for Ab2.7. As for the experimental part:
as §1

Another test deals with T2, mouse hepcidin (mouse, UniProt Q9EQ21 59-83).
T2 peptide (looked up): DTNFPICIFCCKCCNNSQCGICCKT
The experiment in a line: competition ELISA.

Test [4] addresses B1. The experiment in a line: KinExA solution equilibrium, human hepcidin-coated beads. As for the experimental part:
SA-Sepharose beads were pre-coated with biotinylated human hepcidin (SEQ ID NO: 9) and blocked with BSA according to manufacturer's instructions. Antibodies and hepcidin were diluted in PBS/0.1% BSA/0.05% NaN₃ buffer. Fixed concentrations of antibodies 15E1, 15E1 W52H, 15E1 A99H, 15E1 N521-1, 15E1 A107H and 18B11 were incubated with various concentrations of human hepcidin at room temperature for 8 hours before being run through the human hepcidin-coated beads. The amount of the bead-bound antibody was quantified by fluorescently (Cy5)-labeled goat anti-murine-IgG (H+L) antibody (Jackson Immuno Research, West Grove, Pa.). The binding signal is proportional to the concentration of free antibody at equilibrium. Dissociation equilibrium constant (KD) was obtained from nonlinear regression of the competition curves using a dual-curve one-site homogeneous binding model (KinExATM Pro software).

The target in test [5] is B1. The experiment in a line: BIAcore, rhuHepc immobilised on CM5 chip, dissociation buffers of pH 7.4, 6 and 5.5; dissociation buffer pH 7.4. The protocol:
Off-rate analysis of dissociation at different pHs was also performed. A slow off-rate is expected to predict increased binding interaction over a longer period of time, while a faster off-rate is expected to predict decreased binding interaction. For example, a faster off-rate at lower pH is expected to predict greater release of antigen at lower pH. Solution equilibrium binding analysis was performed using BIAcore to study the off-rates of antibodies 1S1, 1S3, 2.7, 18B11, 23F11 and 26F11 with recombinant human hepcidin (SEQ ID NO: 9).
Immobilization of recombinant human hepcidin (rhuHepc) to a BIAcore sensor chip surface was performed according to manufacturer's instructions at a flow rate 10 μL/min of running buffer (DPBS: Dulbecco's Phosphate Buffer Salinel X, no CaCl or MgCl, with 0.005% Biacore surfactant P-20). The carboxylated matrix of the sensor chip was first activated with a 60 μL injection of a mixture containing 0.2 M EDC(N-ethyl-N-(dimethylamine-propyl)carbodiimide in water, from BIAcore) and 0.05M NHS (N-hydroxysuccinimide in water, from Biacore). 55 μL of recombinant human hepcidin (1 μg/ml in 10 mM Na-acetate pH4.0) was injected to immobilize onto the sensor chip. The excess reactive groups of the sensor chip were deactivated with an injection of 60 μL of ethanolamine (1.0M, from Biacore). […]

The target in test [6] is B1. Nature of the test: ELISA, mono-biotinylated human hepcidin on Neutravidin plate, pH 7.4. As for the experimental part: (§2) Differential pH binding of the antibodies listed above in Table 3 was then determined by ELISA. 50 μL of Neutravidin (Pierce) at 8 μg/mL in 1×PBS was coated upon a Nunc Maxisorp 384-well plate, and incubated at 37° C. for 1 hr. After blocking the wells with 0.1% BSA/PBS/0.05% Tween20 for 1 hour at room temperature, plates were washed six times with PBS/0.05% Tween20. 25 μL of mono-biotinylated hepcidin at 50 ng/mL in 0.1% BSA/PBS/0.05% Tween20 was added to the 384-well plate, and incubated at room temperature for 1 hour. The plates were next washed six times with PBS/0.05% Tween20. Starting hepcidin antibody concentrations were normalized to 1 μg/mL for pH 5.5 and 6.0 conditions and to 100 ng/mL for pH 7.4 conditions. The hepcidin antibodies were serially diluted 3-fold in PBS/1% NFDM pH 7.4 and 4-fold in PBS/1% NFDM pH 6.0 and 5.5. The dilutions and titrations were performed in polypropylene 96-well dilution plates, and then were transferred in duplicate to a Neutravidin-coated 384-well plate. The biotinylated hepcidin and antibodies were incubated for 2 hours at room temperature. The plate was next washed six times with PBS/0.05% Tween20. 25 μL it of goat anti-huIgG-horseradish peroxidase at a 1:7000 dilution in 0.1% BSA/PBS/0.05% Tween20 was next added to each well of the assay plate. The plate was finally washed six times in PBS/0.05% Tween20. Enhanced K-Blue 3,3′,5,5′-Tetramethylbenzidine (TMB) Substrate (Neogen) was added and the reaction stopped using 1 M H₃PO₄ after 10 minutes of incubation at room temperature. The absorption was measured at 450 nm on a plate reader. Binding data were analyzed by non-linear regression analysis (sigmoidal dose-response, variable slope) to generate EC₅₀ values using GraphPad Prism® software. […] Double combinations of these mutants were made.

Test [7] deals with B1. Nature of the test: ELISA, mono-biotinylated human hepcidin on Neutravidin plate, pH 6.0. As for the experimental part:
as §2

Test [8] concerns the target B1. Nature of the test: antibody at 1:250 dilution; KinExA / BIAcore named in the paragraph.

As for B1, the “IC50 (read off the curve)” value in the test with murine antibody 2.7 [1] was about 7 ng/mL; with murine antibody 2.7 [2], about 8 ng/mL; with murine antibody 2.7 [3] it was about 10 ng/mL.

B2: antibody 18B11 (antibody, V domains shown)
VH: QVQLQQWGAGPLKPSETLSLTCAVYNGSFSGYYWSWIRQPPGKGLEWIGDINHSGNTKYNPSLKSRVTISVDTSKNQFSLKLSSVTAADTAVYYCARGDFWSGFDWFDPWGQGTLVTVSS
VL: QSALTQPASVSGSPGQSITISCTGTSSNVGSYNLVSWYQQHPGKAPKLMISEVSKRPSGLSNRFSGSKSGNTASLTISGLQAEDEADYYCCSYAGSSTLIFGGGTKLTVL
notes: Human antibody from Xenomouse IgG2 or IgG4 mice; also called 181311
Consider B2, for which the binding result with mouse hepcidin was “no binding”. For the same molecule, the Kd in test [4] was determined as 7.4 nM. The molecule further displayed a koff in test [5] of over 0.01 s⁻¹. The EC50 in test [6] is 2.7 ng/mL; in test [7], 244 ng/mL. The “fold reduction in affinity at pH 6 compared to pH 7.4” value in test [8] was about 10 fold.
